Sequences and labels used below:
B1: 5D7 (scFv_Fc form) (Fc fusion)
scFv: EVQLLESGGGLVQPGGSLRLSCAASGFTFSNYAMSWVRQAPGKGLEWVSGIRSSGGRTFYADSVKGRFTISRDNSKNTLYLQMNSLRAEDTAVYYCARVAFSGSFDYWGQGTLVTVSSGGGGSGGGGSGGGGSDIQMTQSPSTLSASVGDRVTITCRASQSISSWLAWYQQKPGKAPKLLIYDASSLESGVPSRFSGSGSGTEFTLTISSLQPDDFATYYCQQRNRYPPTFGQGTKVEIK
notes: not shown: human Fc segment of the eukaryotic expression vector V152
B2: 2C7 (scFv_Fc form) (Fc fusion)
scFv: EVQLLESGGGLVQPGGSLRLSCAASGFTFKLPAMSWVRQAPGKGLEWVSAITGSGGSTYYADSVKGRFTISRDNSKNTLYLQMNSLRAEDTAVYYCAKVRYGWGAGAFDYWGQGTLVTVSSGGGGSGGGGSGGGGSDIQMTQSPSTLSASVGDRVTITCRASQSISSWLAWYQQKPGKAPKLLIYDASSLESGVPSRFSGSGSGTEFTLTISSLQPDDFATYYCQQYDTYPPITFGQGTKVEIK
notes: as for B1
B3: 1B11 (scFv_Fc form) (Fc fusion)
scFv: B2 scFv with K30S, L31R, P32D, M34L, S35N, T52S, Y59F
notes: as for B1
B4: 2D4 (scFv_Fc form) (Fc fusion)
scFv: B2 scFv with K30R, L31K, P32Y, S35G, A50G, T52S, G55V
notes: as for B1
B5: 1B11 (scFv) (scFv)
scFv: B2 scFv with K30S, L31R, P32D, M34L, S35N, T52S, Y59F
notes: also called clone 1B11
B6: 1H7 (scFv) (scFv)
scFv: B2 scFv with K30R, L31R, P32Y, A50G, T52S, S57G
notes: also called clone 1H7
B7: 1D11 (scFv) (scFv)
scFv: B2 scFv with K30G, L31T, P32I, A33P, A50S, T52S, G55A
notes: also called clone 1D11
B8: 2C7 (scFv) (scFv)
scFv: B2 scFv
notes: also called clone 2C7
B9: 2A5 (scFv) (scFv)
scFv: B2 scFv with K30S, L31R, P32Y, S35N, T52S, G53A, S57G
notes: also called clone 2A5
B10: 1D8 (scFv) (scFv)
scFv: B2 scFv with K30S, L31R, P32Y, S35N, T52N, G53A
notes: also called clone 1D8
B11: 2D4 (scFv) (scFv)
scFv: B2 scFv with K30R, L31K, P32Y, S35G, A50G, T52S, G55V
notes: also called clone 2D4
B12: 5G3 (scFv_Fc form) (Fc fusion)
scFv: B1 scFv with N31S, A33V, M34L, G50A, S53G, G55A, R57N, F59Y
notes: as for B1

Residue numbers refer to the chain shown, from its start. A value given as a limit tells only on which side of the number the result lay.

For the first assay, the target named is T1, IL-13RA2 huFc (human).
T1 construct: Expressed in 293F cells, purified on protein A; also called human IL13RA2; recombinant IL-13RA2
Kind of assay: SPR (Biacore T200), ligand IL13Ra2 on the chip, scFv_Fc as analyte at 6.25 to 100 nM, 1:1 binding fit, flow 30 ul/min. How it is done: (§1) IL-13RA2 huFc was coated on the CMS chip by amino coupling, coated to about 500 RU, and the gradiently diluted antibodies were passed through the antigen-coated channel at a flow rate of 30 ul/min as a mobile phase. The running buffer was HBS-N and the temperature was 25° C. The experimental data was analyzed by BIAevaluation 3.2 and the kinetic curves were fitted using a 1:1 langmuir model.
(§2) Affinity was determined using the method of Example 5 using biacore T200, and the results are shown as in FIGS. 11B-11G. […] The association and dissociation constants of the antibodies are shown as in FIG. 11F.
A general note: Surface plasmon resonance follows binding to a sensor surface in real time, without labels.
Target sequence in this assay (chain, as listed by the source limits assumed): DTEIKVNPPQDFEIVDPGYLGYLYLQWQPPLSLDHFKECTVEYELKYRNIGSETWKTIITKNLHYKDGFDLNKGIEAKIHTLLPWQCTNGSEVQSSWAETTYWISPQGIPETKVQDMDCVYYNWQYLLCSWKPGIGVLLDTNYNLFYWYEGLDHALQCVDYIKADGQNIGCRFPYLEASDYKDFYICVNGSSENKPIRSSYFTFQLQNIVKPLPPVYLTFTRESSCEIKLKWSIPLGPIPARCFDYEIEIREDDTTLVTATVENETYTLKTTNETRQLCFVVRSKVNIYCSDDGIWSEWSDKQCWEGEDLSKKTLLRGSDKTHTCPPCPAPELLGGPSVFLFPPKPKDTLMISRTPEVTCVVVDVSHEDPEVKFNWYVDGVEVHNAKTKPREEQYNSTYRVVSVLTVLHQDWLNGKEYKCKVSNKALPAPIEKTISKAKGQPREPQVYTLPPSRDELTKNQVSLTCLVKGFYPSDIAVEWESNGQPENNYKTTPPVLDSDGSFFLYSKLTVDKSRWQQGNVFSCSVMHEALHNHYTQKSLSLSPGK
In general, Kd refers to the constant that tells how readily two partners part at equilibrium. A lower Kd goes with higher affinity. For orientation: koff means the first-order rate constant of dissociation. The low end stands for slow dissociation, the high end for fast dissociation. The term kon denotes the rate constant with which the complex forms. Higher therefore signals faster complex formation. In turn, B1 gave a Kd of 0.335 nM, a koff of 0.000247 s⁻¹ and a kon of 737000 M⁻¹ s⁻¹.
As to B2, binding was characterised by a dissociation constant (Kd) of 0.248 nM, the koff is 9.15e-05 s⁻¹ and the kon came to 369000 M⁻¹ s⁻¹.
On to B3, for which the Kd was found to be 1.04 nM, the koff was determined as 0.000263 s⁻¹ and the kon is 252000 M⁻¹ s⁻¹.
B4 returned a Kd of 0.174 nM, a koff of 0.000113 s⁻¹ and a kon of 646000 M⁻¹ s⁻¹.

A further assay has as its target T1, IL-13RA2 huFc. Kind of assay: Biacore, induced supernatant of the scFv clone; parent 31C2.
With B5, the “fold lower dissociation constant Kd than the parent clone” value was over 10 times.
With B6, the “fold lower dissociation constant Kd than the parent clone” value is over 10 times.
For B7, the “fold lower dissociation constant Kd than the parent clone” value is over 10 times.
Still for that read-out and setting: next, B8: 10 times.
The same measure, in the same setting: next, B9: over 10 times.
Take B10: the “fold lower dissociation constant Kd than the parent clone” value was over 10 times.
The same measure, in the same setting: next, B11: over 10 times.

A further assay has as its target T1, IL-13RA2 huFc. The experiment in a line: SPR (Biacore), induced scFv supernatant; column head: Dissociation constant Kd(S-1).
B5 showed a koff of 0.000736 s⁻¹.
For the molecule B6, the koff was found to be 0.000888 s⁻¹.
B7 had a koff of 0.000677 s⁻¹.
For B8, the koff was found to be 0.000501 s⁻¹.
B9 yielded a koff of 0.000788 s⁻¹.
Molecule B10 yielded a koff of 0.00094 s⁻¹.
For B11, the koff was found to be 0.000837 s⁻¹.

Another assay has as its target T2, Murine IL-13RA2 (murine, UniProt O88786 22-334, limits assumed).
T2 construct: Bought recombinant protein; coated on the ELISA plate at 5 ug/ml
T2 sequence (looked up): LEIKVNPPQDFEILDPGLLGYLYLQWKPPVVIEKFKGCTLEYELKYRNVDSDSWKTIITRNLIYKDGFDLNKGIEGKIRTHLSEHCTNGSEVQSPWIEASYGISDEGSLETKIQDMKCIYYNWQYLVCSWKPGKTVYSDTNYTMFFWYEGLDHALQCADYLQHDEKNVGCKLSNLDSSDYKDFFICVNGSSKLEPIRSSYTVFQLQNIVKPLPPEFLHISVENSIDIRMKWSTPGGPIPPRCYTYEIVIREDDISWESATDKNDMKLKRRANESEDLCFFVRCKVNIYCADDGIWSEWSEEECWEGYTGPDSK
The experiment in a line: ELISA by the method of Example 3, antibody concentration not given; bars assigned by their order in the legend. The method, then: (§3) The species specificity of antibodies 31C2 and 32H4 was determined by standard ELISA. Murine IL-13RA2 was purchased from Sino Biological Inc. The ELISA plate was coated with 100 ul of 5 ug/ml murine IL-13RA2 per well at 4° C. overnight. The coated ELISA plate was washed with PBS three times. 200 ul solution of 2% skim milk powder in PBS per well was added for blocking at room temperature for 1 hour. The plate was washed with PBS three times. The gradiently diluted antibodies with a starting concentration of 10 μg/ml, 3-fold serially diluted, were added and incubated at room temperature for 1 hr. The mixture was washed with PBST three times and washed with PBS three times. HRP-labeled goat anti-human Fc was added and incubated at room temperature for 1 hour. The mixture was washed with PBST three times and washed with PBS three times. After TMB was added for color development for 15 minutes, and the reaction was stopped by the addition of sulfuric acid, and read on a microplate reader.
(§4) The specificity of the antibodies 5D7, 2C7, 5G3, 2D4, 2D3 and 1B11 was determined by standard ELISA following the method of Example 3. The results were shown as in FIG. 10B.
Regarding B5, the binding result was “binds”.
Regarding B11, the binding result was “binds”.

The target of the next assay is T3, IL-13RA1_huFc (human).
T3 construct: IL-13RA1 extracellular segment, 'GS', Fc segment Asp104-Lys330 of the human IgG1 heavy chain constant region; also called human IL13RA1
T3 sequence (chain, as listed by the source limits assumed): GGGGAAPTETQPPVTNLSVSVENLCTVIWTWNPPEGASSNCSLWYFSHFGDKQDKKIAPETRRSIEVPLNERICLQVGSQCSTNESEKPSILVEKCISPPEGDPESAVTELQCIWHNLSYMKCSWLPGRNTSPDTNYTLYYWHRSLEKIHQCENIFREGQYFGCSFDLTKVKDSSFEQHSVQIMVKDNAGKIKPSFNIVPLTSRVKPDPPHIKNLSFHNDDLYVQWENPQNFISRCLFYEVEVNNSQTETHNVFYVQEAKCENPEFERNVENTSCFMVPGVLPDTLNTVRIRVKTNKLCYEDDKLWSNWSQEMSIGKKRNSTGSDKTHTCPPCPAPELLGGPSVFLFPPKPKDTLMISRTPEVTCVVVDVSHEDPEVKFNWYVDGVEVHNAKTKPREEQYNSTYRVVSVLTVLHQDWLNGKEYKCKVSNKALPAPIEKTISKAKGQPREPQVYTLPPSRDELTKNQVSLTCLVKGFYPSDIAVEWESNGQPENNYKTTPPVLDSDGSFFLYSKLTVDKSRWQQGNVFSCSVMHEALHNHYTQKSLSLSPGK
Described as above. How it is done:
as §3, §4
As to B5, the binding result is given as “no binding”.
For B11, the binding result is recorded as “no binding”.

Another assay addresses T1, IL-13RA2 huFc. Kind of assay: SPR (Biacore T200), ligand IL13Ra2 on the chip, scFv_Fc as analyte at 100, 50, 25 and 6.25 nM, 1:1 binding fit, flow 30 ul/min. How it is done: as §1, §2
With B12, the Kd amounted to 0.194 nM, the koff is 0.000134 s⁻¹ and the kon is 690000 M⁻¹ s⁻¹.

A further assay concerns the target T1, IL-13RA2 huFc. The experiment in a line: SPR (Biacore T200), scFv_Fc forms on IL-13RA2 huFc, summary table. How it is done:
as §1, §2
The molecule B1 registered a Kd of 0.335 nM, a koff of 0.000247 s⁻¹ and a kon of 737000 M⁻¹ s⁻¹.
Molecule B12 gave a Kd of 0.194 nM, a koff of 0.000134 s⁻¹ and a kon of 690000 M⁻¹ s⁻¹.
B2 registered a Kd of 0.248 nM, a koff of 9.15e-05 s⁻¹ and a kon of 369000 M⁻¹ s⁻¹.
With B3, the Kd is 1.04 nM, the koff came out at 0.000263 s⁻¹ and the kon was 253000 M⁻¹ s⁻¹.
Take B4: the Kd is 0.174 nM, the koff is 0.000113 s⁻¹ and the kon was determined as 646000 M⁻¹ s⁻¹.

For another assay, the target named is T1, IL-13RA2 huFc. Kind of assay: SPR (Biacore T200), nickel-purified scFv. The method, then:
as §1
Affinity purification was performed using a nickel column, affinity was measured using biacore T200, and the association and dissociation constants of the affinity matured antibodies are shown as in FIG. 10A.
Take B5: the Kd is 17.5 nM, the koff is 0.000803 s⁻¹ and the kon stood at 46000 M⁻¹ s⁻¹.
B6: the Kd is 12.1 nM, the koff is 0.000765 s⁻¹ and the kon was determined as 63200 M⁻¹ s⁻¹.
On the same counts, the results for B7 are 9.89 nM, 0.000386 s⁻¹ and 39000 M⁻¹ s⁻¹.
For the molecule B8, binding was put at a Kd of 5.42 nM, the koff is 0.00041 s⁻¹ and the kon turned out to be 75700 M⁻¹ s⁻¹.
On the same counts, the results for B9 are 15.5 nM, 0.000656 s⁻¹ and 42400 M⁻¹ s⁻¹.
Take B10: the affinity, expressed as Kd, was 13.8 nM; the koff worked out at 0.000911 s⁻¹; the kon was found to be 66000 M⁻¹ s⁻¹.
On the same counts, the results for B11 are 8.92 nM, 0.000745 s⁻¹ and 83500 M⁻¹ s⁻¹.

For the next assay, the target named is T4, IL-13RA2 endogenously expressed on U251 cells (human, UniProt Q14627 27-380).
T4 construct: whole, on cells; also called U251 cells expressing IL13RA2; U251 (IL-13RA2-positive)
T4 sequence (looked up): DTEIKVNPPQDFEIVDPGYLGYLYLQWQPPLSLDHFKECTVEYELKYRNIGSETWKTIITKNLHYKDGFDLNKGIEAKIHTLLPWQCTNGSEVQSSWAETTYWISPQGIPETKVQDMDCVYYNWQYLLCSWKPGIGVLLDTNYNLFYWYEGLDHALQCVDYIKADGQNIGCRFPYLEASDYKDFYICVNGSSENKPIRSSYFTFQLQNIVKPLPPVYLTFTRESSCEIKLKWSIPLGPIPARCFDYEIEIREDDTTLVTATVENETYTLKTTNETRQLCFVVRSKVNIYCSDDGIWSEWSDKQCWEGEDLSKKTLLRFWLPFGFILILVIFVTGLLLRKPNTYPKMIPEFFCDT
The experiment in a line: flow cytometry on U251 cells, scFv_Fc form, 5-fold dilutions from 2,000 nM, FITC anti-human IgG. The method, then: Following the method of Example 6, cells were harvested, washed once with a growth medium, and resuspended in PBS, and the cell concentration was adjusted to 4E+5 cells/ml. The gradiently diluted scFv_Fc fusion antibody was incubated with the cells for 30 minutes on ice, and the antibody was 5-fold serially diluted with 2,000 nM as the initial concentration, into 11 gradients. Then the mixture was incubated with a FITC-labeled anti-human IgG secondary antibody. After two washing steps, detection was performed using a Guava easyCyte™ HT System instrument. […] There is also a 2-8 fold increase compared with the parent antibody.
On the technique in general: In flow cytometry, cells or beads pass a laser one at a time.
In general, EC50 refers to the concentration that produces a half-maximal response. Molecule B1 displayed an EC50 of 0.56 nM.
B12 yielded an EC50 of 0.53 nM.
As to B2, the concentration giving a half-maximal response (EC50) came to 0.57 nM.
For the molecule B3, a half-maximal response (EC50) required 0.47 nM.
The same measure, in the same setting: for B4 the value was 0.37 nM.

The values above are taken from patent US20190359723A1 (CARSGEN THERAPEUTICS, published 2019).
